Results as given in patent US20240301086A1 (APTEVO RESEARCH AND DEVELOPMENT, published 2024).

Tests used:
[1] = target: T1, cynomolgus Fcγ receptor III (cynomolgus monkey, UniProt Q8SPW2 17-208); test: SPR (Biacore T200), construct amine-coupled, soluble cyno Fcγ receptor as analyte
T1 construct: Called recombinant, soluble; also called Cyno RIII
Experimental: (§1) The Fc region incorporated into anti-PSMA bispecific constructs contained mutations intended to reduce or abolish binding to common human and cynomolgus Fc gamma receptors. SPR experiments were conducted at 25° C. in HBS-EP+ with 0.2% BSA buffer on a Biacore T200 system to evaluate the impact of these mutations on binding. For these experiments, three flow cells of a CM5 sensor chip were immobilized with anti-PSMA bispecifics by standard amine coupling to a response level of ˜2000 RU. A blank immobilization was performed on flow cell #1 for purposes of background signal subtraction. Both human and cynomolgus monkey Fcγ receptors (purchased from R&D Systems) were diluted in HBS-EP+ with 0.2% BSA to 4-6 μM and then flowed as analytes at 30 μL/min for 120 seconds followed by a 240 second dissociation step. No regeneration step was required. Blank-subtracted sensorgrams were visually inspected for binding to each of the Fcγ receptor proteins. […] Attenuated binding to Fcγ receptors IIA (both polymorphic variants) and IIB/C was observed. PSMA01107 and PSMA01108 share the same Fc amino acid sequence and therefore equivalent Fcγ receptor binding behavior was expected.

[2] = target: T2, human CD3ε in the TCR/CD3 complex on Jurkat cells (human, UniProt P07766 23-207); test: flow cytometry, drawn table 'On- Cell Binding Parameters', row 'Human CD3 binding affinity'
T2 construct: whole, on cells; On the cells it stands in the whole TCR/CD3 complex; also called CD3 (+) cells; CD3-expressing Jurkat cells
Experimental: (§2) Constructs were initially tested in CD3ε and PSMA binding assays on Jurkat and C4-2B cells. Cells were labelled at approximately 100,000 cells per well, in 96-well plates, with serial dilutions of bispecific constructs ranging in concentration from of 0.1 to 300 nM, for 30 min on ice. Primary label was followed by washes and incubation with PE-labeled minimum cross species reactive secondary antibody, goat anti-human IgG Fcγ, F(ab′)2 (Jackson Laboratory) for 30 minutes on ice. Washes and incubation were done in staining buffer (PBS with 0.2% BSA and 2 mM EDTA). Cells were collected using an BD™ LSRII or a BD FACSymphony™ flow cytometer (BD Biosciences) and analyzed by FlowJo flow cytometry analysis software. Median fluorescence intensity (MFI) of bound molecules on cells was determined after exclusion of doublets. Results were plotted and nonlinear regression analysis to determine EC50 values was performed using GraphPad Prism 7© graphing and statistics software.

[3] = target: T2, human CD3ε in the TCR/CD3 complex on …; test: flow cytometry on Jurkat cells, PE goat anti-human IgG Fc secondary, MFI (median)
Experimental: as §2

[4] = target: human Fcγ receptor IIIA, V176 variant (human, UniProt P08637 17-208); test: SPR (Biacore T200), construct amine-coupled, Fcγ receptor as analyte
Experimental: as §1

[5] = target: human Fcγ receptor IIIA, F176 variant (human, UniProt P08637 17-208); test: as above
Experimental: as §1

human Fcγ receptor IIIB = human Fcγ receptor IIIB (human, UniProt O75015 17-200); test: as above
Experimental: as §1

human Fcγ receptor I = human Fcγ receptor I (human, UniProt P12314 16-288); test: as above
Experimental: as §1

[6] = target: T3, Full-length Human PSMA (TSC435), on cells (human, UniProt Q04609 1-750); test: flow cytometry on C4-2B cells, PE goat anti-human IgG Fc secondary, MFI (median)
T3 construct: also called CHOK1SV/huPSMA; PSMA on C4-2B, 22RV1, LNCaP, MDA-PCa-2b cells
Experimental: as §2

[7] = target: T2, human CD3ε in the TCR/CD3 complex on …; test: flow cytometry on Jurkat cells, PE goat anti-human IgG Fc secondary, MFI (median); remark: listed apart in the source
Experimental: as §2

[8] = target: T4, Full-length cynomolgus monkey PSMA (TSC308), on cells (cynomolgus monkey, UniProt Q04609 1-750 (human entry)); test: flow cytometry on CHO-CynoPSMA cells, Median (PE); drawn table row 'Cyno PSMA binding affinity'
T4 construct: also called cyno PSMA; CHOK1SV/cynoPSMA
T4 chain: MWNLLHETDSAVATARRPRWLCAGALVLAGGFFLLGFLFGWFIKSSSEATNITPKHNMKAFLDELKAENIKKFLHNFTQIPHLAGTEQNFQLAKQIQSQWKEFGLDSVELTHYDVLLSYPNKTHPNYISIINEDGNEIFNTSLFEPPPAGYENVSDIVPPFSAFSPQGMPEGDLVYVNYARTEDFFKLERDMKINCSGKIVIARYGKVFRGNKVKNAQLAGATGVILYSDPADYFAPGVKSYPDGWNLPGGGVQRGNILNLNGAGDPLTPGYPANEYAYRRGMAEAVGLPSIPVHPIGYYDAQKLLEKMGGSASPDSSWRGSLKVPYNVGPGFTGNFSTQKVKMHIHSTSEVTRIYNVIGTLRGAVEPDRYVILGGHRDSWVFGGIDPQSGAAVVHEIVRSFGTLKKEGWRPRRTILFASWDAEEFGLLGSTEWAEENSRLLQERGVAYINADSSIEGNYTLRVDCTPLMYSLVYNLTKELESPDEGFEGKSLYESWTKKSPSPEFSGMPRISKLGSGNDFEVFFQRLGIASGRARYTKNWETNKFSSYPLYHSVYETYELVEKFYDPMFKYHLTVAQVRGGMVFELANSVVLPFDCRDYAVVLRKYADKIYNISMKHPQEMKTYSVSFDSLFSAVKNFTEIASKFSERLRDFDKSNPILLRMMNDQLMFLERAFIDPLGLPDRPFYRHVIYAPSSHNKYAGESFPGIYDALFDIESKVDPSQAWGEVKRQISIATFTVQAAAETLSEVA

[9] = target: T3, Full-length Human PSMA (TSC435), on …; test: flow cytometry on C4-2B cells, PE goat anti-human IgG Fc secondary, MFI (median); remark: listed apart in the source
Experimental: as §2

[10] = target: T3, Full-length Human PSMA (TSC435), on …; test: flow cytometry, drawn table 'On- Cell Binding Parameters', row 'Human PSMA binding affinity'

T2 sequence (P07766 23-207, one chain of several): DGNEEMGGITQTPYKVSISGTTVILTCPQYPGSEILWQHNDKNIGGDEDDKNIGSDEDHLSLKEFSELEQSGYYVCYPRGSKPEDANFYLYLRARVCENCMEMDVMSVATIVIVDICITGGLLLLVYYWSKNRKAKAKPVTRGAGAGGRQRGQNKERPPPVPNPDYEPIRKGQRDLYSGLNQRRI
Chain of human Fcγ receptor IIIB (O75015 17-200): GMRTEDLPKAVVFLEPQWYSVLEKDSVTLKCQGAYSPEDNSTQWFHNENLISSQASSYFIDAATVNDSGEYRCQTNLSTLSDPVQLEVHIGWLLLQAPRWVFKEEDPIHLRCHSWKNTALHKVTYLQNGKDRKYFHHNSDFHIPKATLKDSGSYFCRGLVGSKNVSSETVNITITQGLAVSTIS
Chain of human Fcγ receptor I (P12314 16-288): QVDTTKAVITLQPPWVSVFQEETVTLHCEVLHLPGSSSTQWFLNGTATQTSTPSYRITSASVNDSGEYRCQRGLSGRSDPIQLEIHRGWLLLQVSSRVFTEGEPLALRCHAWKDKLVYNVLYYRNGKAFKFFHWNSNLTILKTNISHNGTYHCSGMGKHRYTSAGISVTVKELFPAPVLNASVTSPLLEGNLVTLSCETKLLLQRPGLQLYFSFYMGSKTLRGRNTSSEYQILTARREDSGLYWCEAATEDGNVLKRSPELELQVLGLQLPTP
T1 sequence (Q8SPW2 17-208): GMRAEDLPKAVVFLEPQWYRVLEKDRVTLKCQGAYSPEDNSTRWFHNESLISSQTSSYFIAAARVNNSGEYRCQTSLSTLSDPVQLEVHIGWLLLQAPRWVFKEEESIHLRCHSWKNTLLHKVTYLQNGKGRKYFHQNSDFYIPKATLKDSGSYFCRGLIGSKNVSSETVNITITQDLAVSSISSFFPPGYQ
Chain of human Fcγ receptor IIIA, F176 variant (P08637 17-208, change not shown): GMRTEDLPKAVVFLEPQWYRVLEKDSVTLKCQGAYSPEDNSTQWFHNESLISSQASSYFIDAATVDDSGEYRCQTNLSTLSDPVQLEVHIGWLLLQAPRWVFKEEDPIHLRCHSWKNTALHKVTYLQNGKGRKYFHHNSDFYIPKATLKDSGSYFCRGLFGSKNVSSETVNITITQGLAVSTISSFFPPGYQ
Chain of human Fcγ receptor IIIA, V176 variant (P08637 other isoform, or with tags, fused parts or gaps mutant): as the sequence (P08637 17-208, change not shown) above, with F160V counted along it

binding result [1]: no binding (tested: 4-6 µM)
EC50 [2]: > 200 nM
Max [2]: 409
EC50 [3]: > 210 nM
binding result [4]: no binding (tested: 4-6 µM)
binding result [5]: no binding (tested: 4-6 µM)
binding result (human Fcγ receptor IIIB): no binding (tested: 4-6 µM)
binding result (human Fcγ receptor I): no binding (tested: 4-6 µM)
EC50 [6]: 1 nM
EC50 [7]: > 200 nM
EC50 [8]: 4 nM
Max [8]: 19500
EC50 [9]: 1 nM
EC50 [10]: 1 nM
Max [10]: 2500
B1: PSMA01108 Anti-PSMA scFv x Fc x linker x Anti CD3 scFv; Anti PSMA scFv x Fc (bispecific antibody)
chain 1: QVQLVQSGAEVKKPGASVKVSCKASGYTFTDYYMHWVRQAPGQGLEWMGYFNPYNDYTRYAQKFQGRVTMTRDTSTSTVYMELSSLRSEDTAVYYCARSDGYYDAMDYWGQGTTVTVSSGGGGSGGGGSGGGGSGGGGSDIQMTQSPSSLSASVGDRVTITCRASKSISKYLAWYQQKPGKAPKLLIHSGSSLESGVPSRFSGSGSGTEFTLTISSLQPDDFATYYCQQHIEYPWTFGQGTKVEIKEPKSSDKTHTCPPCPAPPAAAPSVFLFPPKPKDTLMISRTPEVTCVVVDVSHEDPEVKFNWYVDGVEVHNAKTKPREEQYNSTYRVVSVLTVLHQDWLNGKEYKCAVSNKALPAPIEKTISKAKGQPREPQVYTLPPSRDELTKNQVSLWCLVKGFYPSDIAVEWESNGQPENNYKTTPPVLDSDGSFFLYSKLTVDKSRWQQGNVFSCSVMHEALHNHYTQKSLSLSPGGGGSPSDIQMTQSPSSLSASVGDRVTITCRASSSVSYMNWYQQKPGKAPKRWIYDSSKLASGVPSRFSGSGSGTDFTLTISSLQPEDFATYYCQQWSRNPPTFGQGTKVEIKGGGGSGGGGSGGGGSGGGGSQVQLVQSGAEVKKPGASVKVSCKASGYTFTRSTMHWVRQAPGQGLEWIGYINPSSAYTNYAQKFQGRVTLTADKSTSTAYMELSSLRSEDTAVYYCASPQVHYDYNGFPYWGQGTLVTVSS
chain 2: QVQLVQSGAEVKKPGASVKVSCKASGYTFTDYYMHWVRQAPGQGLEWMGYFNPYNDYTRYAQKFQGRVTMTRDTSTSTVYMELSSLRSEDTAVYYCARSDGYYDAMDYWGQGTTVTVSSGGGGSGGGGSGGGGSGGGGSDIQMTQSPSSLSASVGDRVTITCRASKSISKYLAWYQQKPGKAPKLLIHSGSSLESGVPSRFSGSGSGTEFTLTISSLQPDDFATYYCQQHIEYPWTFGQGTKVEIKEPKSSDKTHTCPPCPAPPAAAPSVFLFPPKPKDTLMISRTPEVTCVVVDVSHEDPEVKFNWYVDGVEVHNAKTKPREEQYNSTYRVVSVLTVLHQDWLNGKEYKCAVSNKALPAPIEKTISKAKGQPREPQVYTLPPSRDELTKNQVSLSCAVKGFYPSDIAVEWESNGQPENNYKTTPPVLDSDGSFFLVSKLTVDKSRWQQGNVFSCSVMHEALHNHYTQKSLSLSPG
notes: also called PSMA1108; PSAM01108
